Test results taken from US20250179176A1, “ANTI-TIGIT ANTIBODIES AND USES OF THE SAME” (ARCUS BIOSCIENCES, INC., priority 2022, published 2025).

Experiment: Clinical safety of domvanalimab, 99 participants (AB154CSP0001 and ARC-7): TEAEs, related AEs, SAEs
Assay type: in vivo, human

B1: domvanalimab: anti-TIGIT antibody with engineered IgG1 Fc, reduced FcγR binding; heavy chain SEQ ID NO: 12, light chain SEQ ID NO: 13 (antibody)
heavy: EVQLVESGGGLVQPGGSLRLSCAASGFTFSNFGMHWVRQAPGKGLEWVAFISSGSSSIYYADTVKGRFTISRDNAKNSLYLQMNSLRAEDTAVYYCARMRLDYYAMDYWGQGTMVTVSSASTKGPSVFPLAPSSKSTSGGTAALGCLVKDYFPEPVTVSWNSGALTSGVHTFPAVLQSSGLYSLSSVVTVPSSSLGTQTYICNVNHKPSNTKVDKKVEPKSCDKTHTCPPCPAPEAAGGPSVFLFPPKPKDTLMISRTPEVTCWVDVSHEDPEVKFNWYVDGVEVHNAKTKPREEQYNSTYRWSVLTVLHQDWLNGKEYKCKVSNKALPAPIEKTISKAKGQPREPQVYTLPPSRDELTKNQVSLTCLVKGFYPSDIAVEWESNGQPENNYKTTPPVLDSDGSFFLYSKLTVDKSRWQQGNVFSCSVMHEALHNHYTQKSLSLSPGK
light: DIQMTQSPSSLSASVGDRVTITCRASKSISKYLAWYQQKPGKAPKLLIYSGSTLQSGVPSRFSGSGSGTDFTLTISSLQPEDFATYYCQQHNEYPWTFGGGTKVEIKRTVAAPSVFIFPPSDEQLKSGTASWCLLNNFYPREAKVQWKVDNALQSGNSQESVTEQDSKDSTYSLSSTLTLSKADYEKHKVYACEVTHQGLSSPVTKSFNRGEC
For B1, the “SAE small bowel obstruction, frequency” value (99 participants) was 4.0%, the “Domvanalimab-related AE: Abdominal distension” value (AB154CSP0001 (N = 62)) was 1 ( 1.6%) and the “Domvanalimab-related AE: Abdominal pain” value (AB154CSP0001 (N = 62)) was 1 ( 1.6%). The “Domvanalimab-related AE: Anaemia” value (AB154CSP0001 (N = 62)) was 1 ( 1.6%), the “Domvanalimab-related AE: Any AEs” value (AB154CSP0001 (N = 62)) was 32 (51.6%) and the “Domvanalimab-related AE: Arthralgia” value (AB154CSP0001 (N = 62)) was 1 (1.6%). The “Domvanalimab-related AE: Arthritis” value (AB154CSP0001 (N = 62)) was 1 ( 1.6%), the “Domvanalimab-related AE: Aspartate aminotransferase increased” value (AB154CSP0001 (N = 62)) was 1 ( 1.6%) and the “Domvanalimab-related AE: Back pain” value (AB154CSP0001 (N = 62)) was 1 ( 1.6%). For the same molecule, the “Domvanalimab-related AE: Constipation” value (AB154CSP0001 (N = 62)) was 1 ( 1.6%), the “Domvanalimab-related AE: Decreased appetite” value (AB154CSP0001 (N = 62)) was 1 (1.6%) and the “Domvanalimab-related AE: Diarrhoea” value (AB154CSP0001 (N = 62)) was 3 (4.8%). The “Domvanalimab-related AE: Fatigue” value (AB154CSP0001 (N = 62)) was 4 (6.5%), the “Domvanalimab-related AE: Flank pain” value (AB154CSP0001 (N = 62)) was 1 ( 1.6%) and the “Domvanalimab-related AE: Headache” value (AB154CSP0001 (N = 62)) was 3 (4.8%). For the same molecule, the “Domvanalimab-related AE: Hot flush” value (AB154CSP0001 (N = 62)) was 1 ( 1.6%), the “Domvanalimab-related AE: Hyperglycaemia” value (AB154CSP0001 (N = 62)) was 1 ( 1.6%) and the “Domvanalimab-related AE: Hyperkalaemia” value (AB154CSP0001 (N = 62)) was 1 ( 1.6%). For the same molecule, the “Domvanalimab-related AE: Hyperthyroidism” value (AB154CSP0001 (N = 62)) was 2 (3.2%), the “Domvanalimab-related AE: Hypokalaemia” value (AB154CSP0001 (N = 62)) was 1 ( 1.6%) and the “Domvanalimab-related AE: Hypothyroidism” value (AB154CSP0001 (N = 62)) was 4 (6.5%). The “Domvanalimab-related AE: Immune-mediated hepatitis” value (AB154CSP0001 (N = 62)) was 2 ( 3.2%), the “Domvanalimab-related AE: Influenza like illness” value (AB154CSP0001 (N = 62)) was 1 ( 1.6%) and the “Domvanalimab-related AE: Infusion related reaction” value (AB154CSP0001 (N = 62)) was 1 ( 1.6%). The “Domvanalimab-related AE: Liver function test increased” value (AB154CSP0001 (N = 62)) was 1 ( 1.6%), the “Domvanalimab-related AE: Lymphopenia” value (AB154CSP0001 (N = 62)) was 1 ( 1.6%) and the “Domvanalimab-related AE: Muscle spasms” value (AB154CSP0001 (N = 62)) was 1 ( 1.6%). The “Domvanalimab-related AE: Musculoskeletal chest pain” value (AB154CSP0001 (N = 62)) was 1 ( 1.6%), the “Domvanalimab-related AE: Nail disorder” value (AB154CSP0001 (N = 62)) was 1 ( 1.6%) and the “Domvanalimab-related AE: Nasal mucosal disorder” value (AB154CSP0001 (N = 62)) was 1 ( 1.6%). For the same molecule, the “Domvanalimab-related AE: Nausea” value (AB154CSP0001 (N = 62)) was 5 (8.1%), the “Domvanalimab-related AE: Oral pain” value (AB154CSP0001 (N = 62)) was 1 ( 1.6%) and the “Domvanalimab-related AE: Pain” value (AB154CSP0001 (N = 62)) was 2 ( 3.2%). For the same molecule, the “Domvanalimab-related AE: Peripheral sensory neuropathy” value (AB154CSP0001 (N = 62)) was 1 ( 1.6%), the “Domvanalimab-related AE: Pneumonitis” value (AB154CSP0001 (N = 62)) was 1 ( 1.6%) and the “Domvanalimab-related AE: Pruritus” value (AB154CSP0001 (N = 62)) was 5 (8.1%). For the same molecule, the “Domvanalimab-related AE: Pruritus generalised” value (AB154CSP0001 (N = 62)) was 1 ( 1.6%), the “Domvanalimab-related AE: Pulmonary pain” value (AB154CSP0001 (N = 62)) was 1 ( 1.6%) and the “Domvanalimab-related AE: Pyrexia” value (AB154CSP0001 (N = 62)) was 3 (4.8%). For the same molecule, the “Domvanalimab-related AE: Rash” value (AB154CSP0001 (N = 62)) was 1 (1.6%), the “Domvanalimab-related AE: Rash maculo-papular” value (AB154CSP0001 (N = 62)) was 3 (4.8%) and the “Domvanalimab-related AE: Rash pruritic” value (AB154CSP0001 (N = 62)) was 1 ( 1.6%). The “Domvanalimab-related AE: Transaminases increased” value (AB154CSP0001 (N = 62)) was 1 ( 1.6%), the “Domvanalimab-related AE: Tumour flare” value (AB154CSP0001 (N = 62)) was 3 (4.8%) and the “Domvanalimab-related AE: Tumour pain” value (AB154CSP0001 (N = 62)) was 1 ( 1.6%). For the same molecule, the “Domvanalimab-related AE: Adrenal insufficiency” value (ARC-7 (N = 37)) was 1 ( 2.7%), the “Domvanalimab-related AE: Any AEs” value (ARC-7 (N = 37)) was 18 (48.6%) and the “Domvanalimab-related AE: Arthralgia” value (ARC-7 (N = 37)) was 3 (8.1%). For the same molecule, the “Domvanalimab-related AE: Asthenia” value (ARC-7 (N = 37)) was 1 ( 2.7%), the “Domvanalimab-related AE: Back pain” value (ARC-7 (N = 37)) was 1 ( 2.7%) and the “Domvanalimab-related AE: Constipation” value (ARC-7 (N = 37)) was 1 ( 2.7%). For the same molecule, the “Domvanalimab-related AE: Cough” value (ARC-7 (N = 37)) was 1 ( 2.7%), the “Domvanalimab-related AE: Decreased appetite” value (ARC-7 (N = 37)) was 2 (5.4%) and the “Domvanalimab-related AE: Delirium” value (ARC-7 (N = 37)) was 1 ( 2.7%). For the same molecule, the “Domvanalimab-related AE: Diarrhoea” value (ARC-7 (N = 37)) was 2 (5.4%), the “Domvanalimab-related AE: Dry eye” value (ARC-7 (N = 37)) was 1 ( 2.7%) and the “Domvanalimab-related AE: Dry mouth” value (ARC-7 (N = 37)) was 1 ( 2.7%). The “Domvanalimab-related AE: Dyspnoea exertional” value (ARC-7 (N = 37)) was 1 ( 2.7%), the “Domvanalimab-related AE: Fatigue” value (ARC-7 (N = 37)) was 2 (5.4%) and the “Domvanalimab-related AE: Generalised oedema” value (ARC-7 (N = 37)) was 1 ( 2.7%). The “Domvanalimab-related AE: Headache” value (ARC-7 (N = 37)) was 1 (2.7%), the “Domvanalimab-related AE: Hyperthyroidism” value (ARC-7 (N = 37)) was 1 (2.7%) and the “Domvanalimab-related AE: Infusion related reaction” value (ARC-7 (N = 37)) was 1 ( 2.7%). The “Domvanalimab-related AE: Infusion site pain” value (ARC-7 (N = 37)) was 1 ( 2.7%), the “Domvanalimab-related AE: Malaise” value (ARC-7 (N = 37)) was 2 ( 5.4%) and the “Domvanalimab-related AE: Myalgia” value (ARC-7 (N = 37)) was 1 ( 2.7%). The “Domvanalimab-related AE: Nausea” value (ARC-7 (N = 37)) was 1 (2.7%), the “Domvanalimab-related AE: Pancreatitis” value (ARC-7 (N = 37)) was 1 ( 2.7%) and the “Domvanalimab-related AE: Paraesthesia” value (ARC-7 (N = 37)) was 1 ( 2.7%). For the same molecule, the “Domvanalimab-related AE: Pneumonitis” value (ARC-7 (N = 37)) was 1 ( 2.7%), the “Domvanalimab-related AE: Pruritus” value (ARC-7 (N = 37)) was 4 (10.8%) and the “Domvanalimab-related AE: Pyrexia” value (ARC-7 (N = 37)) was 2 (5.4%). For the same molecule, the “Domvanalimab-related AE: Rash” value (ARC-7 (N = 37)) was 3 (8.1%), the “Domvanalimab-related AE: Rash maculo-papular” value (ARC-7 (N = 37)) was 3 (8.1%) and the “Domvanalimab-related AE: Rhinorrhoea” value (ARC-7 (N = 37)) was 1 ( 2.7%).
